B1: ephrin-B2 Fc (Example 7) (Fc fusion, not shown: a dimerising Fc or GST; small tags and cut ends)
chain: RSIVLEPIYWNSSNSKFLPGQGLVLYPQIGDKLDIICPKVDSKTVGQYEYYKVYMVDKDQADRCTIKKENTPLLNCARPDQDVKFTIKFQEFSPNLWGLEFQKNKDYYIISTSNGSLEGLDNQEGGVCQTRAMKILMKVGQDASSAGSARNHGPTRRPELEAGTNGRSSTTSPFVKPNPGSSTDGNSAGHSGNNLLGSEVALFA
notes: also called ephrin B2 Fc protein; ephrin B2 Fc fusion protein

Columns and labels:
[1] = molecular target: T1, murine EphB4-Alkaline Phosphatase (murine, UniProt P54761 16-539); assay: ELISA binding curve: ephrin-B2 Fc immobilised, increasing volumes of murine EphB4 AP, OD405; one experiment
T1 construct: also called EphB4-AP; EphB4 AP; not shown: alkaline phosphatase
T1 sequence (looked up): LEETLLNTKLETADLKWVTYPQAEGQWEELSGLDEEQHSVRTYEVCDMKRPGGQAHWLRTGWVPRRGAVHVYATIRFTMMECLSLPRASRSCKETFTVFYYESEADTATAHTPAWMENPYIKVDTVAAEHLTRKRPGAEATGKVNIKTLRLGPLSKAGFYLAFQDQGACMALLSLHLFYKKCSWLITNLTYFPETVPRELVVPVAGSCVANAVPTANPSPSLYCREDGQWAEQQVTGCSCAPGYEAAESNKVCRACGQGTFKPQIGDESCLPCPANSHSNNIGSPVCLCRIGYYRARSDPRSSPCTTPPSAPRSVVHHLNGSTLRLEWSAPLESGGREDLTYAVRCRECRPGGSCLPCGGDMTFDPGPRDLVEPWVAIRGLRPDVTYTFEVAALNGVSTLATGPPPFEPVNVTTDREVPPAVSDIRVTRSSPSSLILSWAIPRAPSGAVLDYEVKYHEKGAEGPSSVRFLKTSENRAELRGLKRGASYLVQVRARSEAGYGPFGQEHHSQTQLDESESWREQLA

[2] = molecular target: EphB1 (receptor of Table 1); assay: EphB receptor specificity panel (% binding)
[3] = molecular target: EphB2 (receptor of Table 1); assay: EphB receptor specificity panel (% binding)
[4] = molecular target: EphB3 (receptor of Table 1); assay: EphB receptor specificity panel (% binding)
[5] = molecular target: T2, EphB4 (receptor of Table 1) (Mus musculus (Mouse), UniProt P54761 16-539); assay: EphB receptor specificity panel (% binding)
T2 sequence: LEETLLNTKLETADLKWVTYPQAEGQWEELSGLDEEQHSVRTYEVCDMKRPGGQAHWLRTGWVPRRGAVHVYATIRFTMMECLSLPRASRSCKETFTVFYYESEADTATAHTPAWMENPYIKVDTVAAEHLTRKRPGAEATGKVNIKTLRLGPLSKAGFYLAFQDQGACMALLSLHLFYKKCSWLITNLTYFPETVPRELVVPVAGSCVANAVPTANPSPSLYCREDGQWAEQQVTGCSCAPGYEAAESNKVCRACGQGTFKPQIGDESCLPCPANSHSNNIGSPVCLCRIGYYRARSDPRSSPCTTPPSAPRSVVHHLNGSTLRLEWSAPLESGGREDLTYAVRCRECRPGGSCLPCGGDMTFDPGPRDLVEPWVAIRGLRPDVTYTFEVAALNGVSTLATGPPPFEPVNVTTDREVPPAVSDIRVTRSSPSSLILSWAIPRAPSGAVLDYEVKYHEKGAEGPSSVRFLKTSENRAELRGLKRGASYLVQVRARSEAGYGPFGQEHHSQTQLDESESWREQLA

[6] = molecular target: EphB6 (receptor of Table 1); assay: EphB receptor specificity panel (% binding)
[7] = molecular target: T2, EphB4 (receptor of Table 1); assay: inhibition of ephrin-B2 AP binding to EphB4 (panning receptor)
murine EphB4 ectodomain = molecular target: T3, murine EphB4 ectodomain (murine, UniProt P54761 16-539); assay: inhibition of murine ephrin-B2 AP binding to immobilised murine EphB4 ectodomain
T3 construct: extracellular domain; Coated on wells; also called immobilized EphB4 receptor ectodomain
T3 sequence (looked up): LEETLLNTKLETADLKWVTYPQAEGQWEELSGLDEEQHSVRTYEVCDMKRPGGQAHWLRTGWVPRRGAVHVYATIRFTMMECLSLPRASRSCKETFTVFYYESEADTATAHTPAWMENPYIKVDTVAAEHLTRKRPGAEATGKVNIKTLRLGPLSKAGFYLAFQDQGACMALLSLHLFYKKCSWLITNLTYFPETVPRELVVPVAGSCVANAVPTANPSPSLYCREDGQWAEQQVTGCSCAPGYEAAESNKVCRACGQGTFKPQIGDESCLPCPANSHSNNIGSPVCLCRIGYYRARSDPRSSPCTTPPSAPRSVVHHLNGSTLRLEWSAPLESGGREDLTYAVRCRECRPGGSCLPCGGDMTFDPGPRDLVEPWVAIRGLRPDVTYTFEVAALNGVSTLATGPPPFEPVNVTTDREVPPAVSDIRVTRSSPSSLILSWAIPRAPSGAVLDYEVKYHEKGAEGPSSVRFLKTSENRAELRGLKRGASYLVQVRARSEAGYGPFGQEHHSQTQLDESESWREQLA

[8] = molecular target: EphB2 (receptor of Table 1); assay: inhibition of ephrin-B2 AP binding to EphB2 (panning receptor)

| Binder | Kd [1] [µM] | % Binding [2] [%] | % Binding [3] [%] | % Binding [4] [%] | % Binding [5] [%] | % Binding [6] [%] | IC50 [7] [µM] | IC50 (murine EphB4 ectodomain) [µM] | IC50 [8] [µM] |
| --- | --- | --- | --- | --- | --- | --- | --- | --- | --- |
| B1 | 0.0006 | – | – | – | – | – | – | – | – |
| TTLSQLPKSTWL (Panned on EphB1) [TTLSQLPKSTWL peptide (SEQ ID NO:2)] | – | 100 | 0 | 1 | 0 | 0 | – | – | – |
| EWYMKFPPEHYF (Panned on EphB4) [EWYMKFPPEHYF peptide (SEQ ID NO:19)] | – | 22 | 23 | 23 | 100 | 30 | > 600 | – | – |
| DALNDWLLFRPW (Panned on EphB4) [DALNDWLLFRPW peptide (SEQ ID NO:20)] | – | 0 | 0 | 10 | 100 | 16 | > 100 | – | – |
| DHNHNLYNPWRL (Panned on EphB4) [DHNHNLYNPWRL peptide (SEQ ID NO:21)] | – | 9 | 8 | 9 | 100 | 7 | ~200 | – | – |
| EFFTWRPTYYGI (Panned on EphB4) [EFFTWRPTYYGI peptide (SEQ ID NO:23)] | – | 16 | 12 | 29 | 100 | 17 | – | – | – |
| FSPQGPAARNFA (Panned on EphB4) [FSPQGPAARNFA peptide (SEQ ID NO:25)] | – | 13 | 8 | 11 | 100 | 11 | > 600 | – | – |
| LPHGPVAAAWDA (Panned on EphB4) [LPHGPVAAAWDA peptide (SEQ ID NO:26)] | – | 2 | 15 | 2 | 100 | 4 | – | – | – |
| NPVIGPIQRAWT (Panned on EphB4) [NPVIGPIQRAWT peptide (SEQ ID NO:27)] | – | 1 | 0 | 4 | 100 | 0 | > 500 | – | – |
| SHVGPIMRAWAP (Panned on EphB4) [SHVGPIMRAWAP peptide (SEQ ID NO:28)] | – | 22 | 6 | 2 | 100 | 6 | – | – | – |
| GPVHRAWEPTSH (Panned on EphB4) [GPVHRAWEPTSH peptide (SEQ ID NO:29)] | – | 4 | 6 | 16 | 100 | 7 | – | – | – |
| GPVERAWRPDLI (Panned on EphB4) [GPVERAWRPDLI peptide (SEQ ID NO:30)] | – | 1 | 2 | 1 | 100 | 3 | – | – | – |
| GPVSKAWQETET (Panned on EphB4) [GPVSKAWQETET peptide (SEQ ID NO:31)] | – | 13 | 13 | 14 | 100 | 16 | – | – | – |
| GPVADAWLVYPR (Panned on EphB4) [GPVADAWLVYPR peptide (SEQ ID NO:32)] | – | 10 | 5 | 4 | 100 | 6 | – | – | – |
| WGIPRAAQVMWT (Panned on EphB4) [WGIPRAAQVMWT peptide (SEQ ID NO:33)] | – | 16 | 17 | 20 | 100 | 14 | – | – | – |
| IPWTQHMAMSPM (Panned on EphB4) [… peptide (SEQ ID NO:34)] | – | – | – | – | 100 | – | – | – | – |
| SGHQLLLNKMPN (Panned on EphB4) [SGHQLLLNKMPN peptide (SEQ ID NO:35)] | – | – | – | – | 100 | – | – | – | – |

| Binder | Kd [1] [µM] | % Binding [2] [%] | % Binding [3] [%] | % Binding [4] [%] | % Binding [5] [%] | % Binding [6] [%] | IC50 [7] [µM] | IC50 (murine EphB4 ectodomain) [µM] | IC50 [8] [µM] |
| --- | --- | --- | --- | --- | --- | --- | --- | --- | --- |
| SHKFPGPPSWMS (Panned on EphB1) [SHKFPGPPSWMS peptide (SEQ ID NO:4)] | – | 88 | 100 | 10 | 9 | 0 | – | – | – |
| NYLFSPNGPIARAW [NYL-RAW peptide NYLFSPNGPIARAW (SEQ ID NO:40)] | – | – | – | – | – | – | – | ~0.04 | – |
| YLFSPNGPIARAW [YL-RAW peptide YLFSPNGPIARAW (SEQ ID NO:41)] | – | – | – | – | – | – | – | ~0.04 | – |
| LFSPNGPIARAW [L-RAW peptide LFSPNGPIARAW (SEQ ID NO:42)] | – | – | – | – | – | – | – | > 10 | – |
| THWKFQPWALVT (Panned on EphB1) [THWKFQPWALVT peptide (SEQ ID NO:5)] | – | 86 | 100 | 5 | 0 | 0 | – | – | – |
| THWCHLLNCAAL (Panned on EphB2) [THWCHLLNCAAL peptide (SEQ ID NO:6)] | – | 100 | 89 | 85 | 20 | 26 | – | – | – |
| WHRYPDPRMLPT (Panned on EphB2) [WHRYPDPRMLPT peptide (SEQ ID NO:7)] | – | 54 | 100 | 31 | 13 | 15 | – | – | – |
| WHWTIEPFAITS (Panned on EphB2) [WHWTIEPFAITS peptide (SEQ ID NO:8)] | – | 99 | 100 | 22 | 20 | 45 | – | – | > 100 |
| DHWYYTPWQPIE (Panned on EphB2) [DHWYYTPWQPIE peptide (SEQ ID NO:9)] | – | 100 | 81 | 5 | 5 | 2 | – | – | – |
| DHWRILPFSLSS (Panned on EphB2) [DHWRILPFSLSS peptide (SEQ ID NO:10)] | – | 53 | 100 | 4 | 1 | 3 | – | – | > 100 |
| IHWPVAPYSYLD (Panned on EphB2) [IHWPVAPYSYLD peptide (SEQ ID NO:11)] | – | 97 | 100 | 4 | 4 | 7 | – | – | – |
| SHWPVLPFAHWQ (Panned on EphB2) [SHWPVLPFAHWQ peptide (SEQ ID NO:12)] | – | 98 | 100 | 9 | 6 | 10 | – | – | – |
| DHWRVSPYSLLY (Panned on EphB2) [DHWRVSPYSLLY peptide (SEQ ID NO:13)] | – | 100 | 97 | 1 | 0 | 1 | – | – | – |
| SHWPISPYSLLS (Panned on EphB2) [SHWPISPYSLLS peptide (SEQ ID NO:14)] | – | 39 | 100 | 9 | 4 | 8 | – | – | > 100 |
| NHWPTQPYAIPI (Panned on EphB2) [NHWPTQPYAIPI peptide (SEQ ID NO:15)] | – | 18 | 100 | 22 | 22 | 0 | – | – | – |
| DHWPLLPYALAH (Panned on EphB2) [… peptide (SEQ ID NO:16)] | – | 4 | 100 | 7 | 0 | 0 | – | – | – |
| WPPHWPRSLDYA (Panned on EphB2) [WPPHWPRSLDYA peptide (SEQ ID NO:17)] | – | 0 | 100 | 0 | 0 | 0 | – | – | – |

Reference: US20100150834A1 (BURNHAM INSTITUTE, published 2010)
